{"source": "patent US6608174B1", "about": "“Radiolabeled vasoactive intestinal peptide analogs for diagnosis and radiotherapy” (Dabur Research Foundation, priority 2000, dated 2003)", "test_system": "human adenocarcinoma tumor", "parameters": "species or system NIH nu/nu nude mice", "conditions": "mouse, in vivo, iv", "description": "Tc-99m labeled peptide (SEQ ID NO: 10) was used to image tumors induced subcutaneously in the abdomen of NIH nu/nu nude mice. Following intravenous administration in human adenocarcinoma tumor bearing nude mice, images were taken at different time intervals post […], using a conventional gamma camera. […] The results are shown in FIG. 1 which clearly depicts that the accumulation of Tc-99m labeled VIP analog is high in tumor (indicated with arrow) as compared to the accumulation in viscera (unmarked dots) after 3 hours of injection.", "note": "Square brackets hold non-standard residues; d marks the D form. Peptide text beside a SMILES is read from it. * marks the point of attachment. DTPA = O=C(O)CN(CCN(CC(=O)O)CC(=O)O)CCN(CC(=O)O)CC(=O)*; dPhe(4-Cl) = N[C@H](Cc1ccc(Cl)cc1)C(=O)O; Aib = CC(C)(N)C(=O)O; Ahx = NCCCCCC(=O)O"}
{"smiles": "CC[C@H](C)[C@H](NC(=O)[C@H](CO)NC(=O)[C@H](CC(N)=O)NC(=O)[C@H](CC(C)C)NC(=O)[C@H](Cc1ccc(O)cc1)NC(=O)[C@H](CCCCN)NC(=O)[C@H](CCCCN)NC(=O)[C@@H](NC(=O)[C@H](C)NC(=O)[C@H](CC(C)C)NC(=O)[C@H](CCC(N)=O)NC(=O)[C@H](CCCCN)NC(=O)[C@H](CCCNC(=N)N)NC(=O)[C@H](CC(C)C)NC(=O)[C@H](CCCNC(=N)N)NC(=O)[C@@H](NC(=O)[C@H](Cc1ccc(O)cc1)NC(=O)[C@H](CC(N)=O)NC(=O)[C@H](CC(=O)O)NC(=O)[C@@H](NC(=O)[C@@H](Cc1ccc(Cl)cc1)NC(=O)[C@@H](NC(=O)C(C)(C)NC(=O)[C@H](CC(=O)O)NC(=O)[C@H](CO)NC(=O)[C@H](Cc1c[nH]cn1)NC(=O)CCCCCNC(=O)CN(CCN(CCN(CC(=O)O)CC(=O)O)CC(=O)O)CC(=O)O)C(C)C)[C@@H](C)O)[C@@H](C)O)C(C)C)C(=O)N[C@@H](CC(C)C)C(=O)N[C@@H](CC(N)=O)C(N)=O", "note": "[Tc-99m labeled peptide (SEQ ID NO: 10), metal not drawn] ({DTPA-Ahx}-HSD[Aib]V[dPhe(4-Cl)]TDNYTRLRKQLAVKKYLNSILN-NH2)", "values": [{"measurement": "accumulation in liver and kidney", "value": "little accumulation in liver and kidney"}, {"measurement": "blood clearance", "value": "rapid blood clearance"}]}
